Data as given in patent CN115368446A (HEFEI TIANGANG IMMUNOLOGY PHARMACEUTICAL CO LTD, dated 2022).

Biological target: T1, CD79b蛋白 (on CHO-K1-CD79b细胞 / A375-CD79b细胞) (Homo sapiens (Human), UniProt P40259 29-229)
T1 sequence: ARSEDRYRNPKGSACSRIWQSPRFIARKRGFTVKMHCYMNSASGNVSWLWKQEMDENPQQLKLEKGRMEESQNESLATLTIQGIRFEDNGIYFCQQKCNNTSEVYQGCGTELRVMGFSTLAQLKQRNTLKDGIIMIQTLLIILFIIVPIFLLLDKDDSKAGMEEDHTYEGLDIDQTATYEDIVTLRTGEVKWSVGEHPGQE
Test: flow cytometry on CHO-K1-CD79b cells, Alexa-647 anti-human Fc detection

B1: 抗体CD3×CD79b (bispecific antibody, human IgG1, kappa, L234A L235A)
scFv: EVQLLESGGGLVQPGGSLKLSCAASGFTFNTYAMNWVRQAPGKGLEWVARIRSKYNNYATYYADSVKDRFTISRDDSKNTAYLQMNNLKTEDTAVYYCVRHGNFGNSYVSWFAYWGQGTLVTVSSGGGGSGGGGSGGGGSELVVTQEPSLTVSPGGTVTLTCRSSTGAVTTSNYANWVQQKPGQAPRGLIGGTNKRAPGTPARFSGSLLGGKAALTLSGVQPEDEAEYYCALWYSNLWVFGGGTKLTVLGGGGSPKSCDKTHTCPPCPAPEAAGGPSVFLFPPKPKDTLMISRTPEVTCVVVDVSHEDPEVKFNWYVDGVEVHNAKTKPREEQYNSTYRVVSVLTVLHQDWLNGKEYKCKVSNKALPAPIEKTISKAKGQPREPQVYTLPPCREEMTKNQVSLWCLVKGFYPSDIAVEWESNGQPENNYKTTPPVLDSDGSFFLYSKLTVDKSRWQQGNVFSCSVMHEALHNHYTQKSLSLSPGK
heavy: EVQLVESGGGLVQPGGSLRLSCAASGYTFSSYWIEWVRQAPGKGLEWIGEILPGGGDTNYNEIFKGRATFSADTSKNTAYLQMNSLRAEDTAVYYCTRRVPIRLDYWGQGTLVTVSSASTKGPSVFPLAPSSKSTSGGTAALGCLVKDYFPEPVTVSWNSGALTSGVHTFPAVLQSSGLYSLSSVVTVPSSSLGTQTYICNVNHKPSNTKVDKKVEPKSCDKTHTCPPCPAPEAAGGPSVFLFPPKPKDTLMISRTPEVTCVVVDVSHEDPEVKFNWYVDGVEVHNAKTKPREEQYNSTYRVVSVLTVLHQDWLNGKEYKCKVSNKALPAPIEKTISKAKGQPREPQVCTLPPSREEMTKNQVSLSCAVKGFYPSDIAVEWESNGQPENNYKTTPPVLDSDGSFFLVSKLTVDKSRWQQGNVFSCSVMHEALHNHYTQKSLSLSPGK
light: DIQLTQSPSSLSASVGDRVTITCKASQSVDYEGDSFLNWYQQKPGKAPKLLIYAASNLESGVPSRFSGSGSGTDFTLTISSLQPEDFATYYCQQSNEDPLTFGQGTKVEIKRTVAAPSVFIFPPSDEQLKSGTASVVCLLNNFYPREAKVQWKVDNALQSGNSQESVTEQDSKDSTYSLSSTLTLSKADYEKHKVYACEVTHQGLSSPVTKSFNRGEC
notes: Three-chain knob-into-hole bispecific made in ExpiCHO cells and purified on Protein A; also called CD3×CD79b抗体; CD3×CD79b双特异抗体
binding result: binds
